We go through one substance from doi:10.1101/2021.05.30.446358.

The target in the experiment is LH1 αβ-polypeptide pair of Rhodospirillum rubrum (Rhodospirillum rubrum) (UniProt P02947). In words: cryo-EM structure.

By stoichiometry N is commonly meant a count of units in the complex or per binding partner. For the substance “LH1 αβ-polypeptide pair of Rhodospirillum rubrum (from UniProt P02947 1-52; P02950 1-49) (complex)”, the stoichiometry N worked out at 16.
